Assay results as given in the supplement of paper PMC10724198.
± gives the standard deviation of the averaged measurements.

How the values were obtained:
Saccharomyces cerevisiae [1] = experiment: protein stability index of tFT-peptide fusion (C-terminal peptide) (PSI (0-1 scale)); higher = more stable (slower turnover); settings: genetic background: wild type; temperature: 30 C
Saccharomyces cerevisiae [2] = experiment: as above
Procedure: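 MPS profiling in S. cerevisiae of the tFT-X12 degron library: putative degron peptides plus stable controls, 12 aa, fused to the C-terminus of a sfGFP-mCherry timer. Cells are FACS-sorted into 8 mCherry/sfGFP bins and deep-sequenced. PSI runs from 0 (unstable) to 1 (stable). Backgrounds are wild type, das1Δ and doa10Δ at 30 °C, and wild type, das1Δ, cdc34-1 and cdc53-1 at 37 °C; 2-3 technical replicates each.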

[3] = genetic background: cdc34-1, temperature: 37 C
[4] = genetic background: cdc53-1, temperature: 37 C
[5] = genetic background: das1 deletion, temperature: 30 C
[6] = genetic background: das1 deletion, temperature: 37 C
[7] = genetic background: doa10 deletion, temperature: 30 C
[8] = genetic background: wild type, temperature: 30 C
[9] = genetic background: wild type, temperature: 37 C
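Further: PSI is a weighted mean of sequencing reads over stability bins, variants kept only with over 10 reads, mCherry proximal and sfGFP distal, peptide attached via GGGS linker.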

VWSWFVIYFFFC
protein stability index (Saccharomyces cerevisiae [1]): 0.368 ± 0.0054 | protein stability index (Saccharomyces cerevisiae [2]; [3]): 0.358 ± 0.025 | protein stability index (Saccharomyces cerevisiae [2]; [4]): 0.388 ± 0.0079 | protein stability index (Saccharomyces cerevisiae [2]; [5]): 0.335 ± 0.029 | protein stability index (Saccharomyces cerevisiae [2]; [6]): 0.497 ± 0.013 | protein stability index (Saccharomyces cerevisiae [2]; [7]): 0.366 ± 0.02 | protein stability index (Saccharomyces cerevisiae [2]; [8]): 0.324 ± 0.014 | protein stability index (Saccharomyces cerevisiae [2]; [9]): 0.444 ± 0.02

LLCGVLFFFWVV
protein stability index (Saccharomyces cerevisiae [1]): 0.42 ± 0.068 | protein stability index (Saccharomyces cerevisiae [2]; [3]): 0.38 ± 0.018 | protein stability index (Saccharomyces cerevisiae [2]; [4]): 0.496 ± 0.011 | protein stability index (Saccharomyces cerevisiae [2]; [5]): 0.383 ± 0.03 | protein stability index (Saccharomyces cerevisiae [2]; [6]): 0.525 ± 0.017 | protein stability index (Saccharomyces cerevisiae [2]; [7]): 0.311 ± 0.0096 | protein stability index (Saccharomyces cerevisiae [2]; [8]): 0.32 ± 0.021 | protein stability index (Saccharomyces cerevisiae [2]; [9]): 0.451 ± 0.0076

MWFVGLCLHFFM
protein stability index (Saccharomyces cerevisiae [1]): 0.3985 ± 0.0019 | protein stability index (Saccharomyces cerevisiae [2]; [3]): 0.472 ± 0.029 | protein stability index (Saccharomyces cerevisiae [2]; [4]): 0.5504 ± 0.0014 | protein stability index (Saccharomyces cerevisiae [2]; [5]): 0.409 ± 0.024 | protein stability index (Saccharomyces cerevisiae [2]; [6]): 0.546 ± 0.035 | protein stability index (Saccharomyces cerevisiae [2]; [7]): 0.344 ± 0.0067 | protein stability index (Saccharomyces cerevisiae [2]; [8]): 0.364 ± 0.017 | protein stability index (Saccharomyces cerevisiae [2]; [9]): 0.499 ± 0.019

ATSGATILVLIA
protein stability index (Saccharomyces cerevisiae [1]): 0.307 ± 0.0047 | protein stability index (Saccharomyces cerevisiae [2]; [3]): 0.569 ± 0.014 | protein stability index (Saccharomyces cerevisiae [2]; [4]): 0.65 ± 0.0048 | protein stability index (Saccharomyces cerevisiae [2]; [5]): 0.488 ± 0.024 | protein stability index (Saccharomyces cerevisiae [2]; [6]): 0.6473 ± 0.0042 | protein stability index (Saccharomyces cerevisiae [2]; [7]): 0.188 ± 0.0099 | protein stability index (Saccharomyces cerevisiae [2]; [8]): 0.218 ± 0.021 | protein stability index (Saccharomyces cerevisiae [2]; [9]): 0.342 ± 0.0064

LLGSRFVLIRSL
protein stability index (Saccharomyces cerevisiae [1]): 0.185 ± 0.017 | protein stability index (Saccharomyces cerevisiae [2]; [3]): 0.488 ± 0.028 | protein stability index (Saccharomyces cerevisiae [2]; [4]): 0.571 ± 0.044 | protein stability index (Saccharomyces cerevisiae [2]; [5]): 0.462 ± 0.026 | protein stability index (Saccharomyces cerevisiae [2]; [6]): 0.621 ± 0.012 | protein stability index (Saccharomyces cerevisiae [2]; [7]): 0.114 ± 0.014 | protein stability index (Saccharomyces cerevisiae [2]; [8]): 0.121 ± 0.01 | protein stability index (Saccharomyces cerevisiae [2]; [9]): 0.161 ± 0.009

LALTRAAITHFF
protein stability index (Saccharomyces cerevisiae [1]): 0.42 ± 0.026 | protein stability index (Saccharomyces cerevisiae [2]; [3]): 0.649 ± 0.026 | protein stability index (Saccharomyces cerevisiae [2]; [4]): 0.749 ± 0.013 | protein stability index (Saccharomyces cerevisiae [2]; [5]): 0.652 ± 0.017 | protein stability index (Saccharomyces cerevisiae [2]; [6]): 0.743 ± 0.039 | protein stability index (Saccharomyces cerevisiae [2]; [7]): 0.213 ± 0.0085 | protein stability index (Saccharomyces cerevisiae [2]; [8]): 0.253 ± 0.026 | protein stability index (Saccharomyces cerevisiae [2]; [9]): 0.496 ± 0.021

RWAAAVPLLVVG
protein stability index (Saccharomyces cerevisiae [1]): 0.211 ± 0.022 | protein stability index (Saccharomyces cerevisiae [2]; [3]): 0.0233 ± 0.0059 | protein stability index (Saccharomyces cerevisiae [2]; [4]): 0.0234 ± 0.0027 | protein stability index (Saccharomyces cerevisiae [2]; [5]): 0.143 ± 0.026 | protein stability index (Saccharomyces cerevisiae [2]; [6]): 0.105 ± 0.0046 | protein stability index (Saccharomyces cerevisiae [2]; [7]): 0.111 ± 0.018 | protein stability index (Saccharomyces cerevisiae [2]; [8]): 0.137 ± 0.032 | protein stability index (Saccharomyces cerevisiae [2]; [9]): 0.0908 ± 0.0062

PPPHPPPATFLS
protein stability index (Saccharomyces cerevisiae [1]): 0.479 ± 0.011 | protein stability index (Saccharomyces cerevisiae [2]; [3]): 0.661 ± 0.029 | protein stability index (Saccharomyces cerevisiae [2]; [4]): 0.692 ± 0.0097 | protein stability index (Saccharomyces cerevisiae [2]; [5]): 0.676 ± 0.02 | protein stability index (Saccharomyces cerevisiae [2]; [6]): 0.729 ± 0.022 | protein stability index (Saccharomyces cerevisiae [2]; [7]): 0.401 ± 0.023 | protein stability index (Saccharomyces cerevisiae [2]; [8]): 0.407 ± 0.021 | protein stability index (Saccharomyces cerevisiae [2]; [9]): 0.596 ± 0.026

FSFSCFFFVLFV
protein stability index (Saccharomyces cerevisiae [1]): 0.127 ± 0.0048 | protein stability index (Saccharomyces cerevisiae [2]; [3]): 0.0608 ± 0.036 | protein stability index (Saccharomyces cerevisiae [2]; [4]): 0.0424 ± 0.002 | protein stability index (Saccharomyces cerevisiae [2]; [5]): 0.0913 ± 0.018 | protein stability index (Saccharomyces cerevisiae [2]; [6]): 0.11 ± 0.022 | protein stability index (Saccharomyces cerevisiae [2]; [7]): 0.265 ± 0.0023 | protein stability index (Saccharomyces cerevisiae [2]; [8]): 0.0703 ± 0.038 | protein stability index (Saccharomyces cerevisiae [2]; [9]): 0.0898 ± 0.017

WQGWFLSLCIWV
protein stability index (Saccharomyces cerevisiae [1]): 0.348 ± 0.014 | protein stability index (Saccharomyces cerevisiae [2]; [3]): 0.2872 ± 0.0019 | protein stability index (Saccharomyces cerevisiae [2]; [4]): 0.341 ± 0.0047 | protein stability index (Saccharomyces cerevisiae [2]; [5]): 0.3 ± 0.031 | protein stability index (Saccharomyces cerevisiae [2]; [6]): 0.404 ± 0.0047 | protein stability index (Saccharomyces cerevisiae [2]; [7]): 0.317 ± 0.0065 | protein stability index (Saccharomyces cerevisiae [2]; [8]): 0.296 ± 0.024 | protein stability index (Saccharomyces cerevisiae [2]; [9]): 0.392 ± 0.025

VVFLLGPLVCGG
protein stability index (Saccharomyces cerevisiae [1]): 0.44 ± 0.025 | protein stability index (Saccharomyces cerevisiae [2]; [3]): 0.5042 ± 0.0031 | protein stability index (Saccharomyces cerevisiae [2]; [4]): 0.514 ± 0.018 | protein stability index (Saccharomyces cerevisiae [2]; [5]): 0.392 ± 0.021 | protein stability index (Saccharomyces cerevisiae [2]; [6]): 0.535 ± 0.0069 | protein stability index (Saccharomyces cerevisiae [2]; [7]): 0.375 ± 0.016 | protein stability index (Saccharomyces cerevisiae [2]; [8]): 0.397 ± 0.019 | protein stability index (Saccharomyces cerevisiae [2]; [9]): 0.5125 ± 0.0021

FYAAILCLLFSC
protein stability index (Saccharomyces cerevisiae [1]): 0.341 ± 0.012 | protein stability index (Saccharomyces cerevisiae [2]; [3]): 0.478 ± 0.037 | protein stability index (Saccharomyces cerevisiae [2]; [4]): 0.512 ± 0.014 | protein stability index (Saccharomyces cerevisiae [2]; [5]): 0.45 ± 0.035 | protein stability index (Saccharomyces cerevisiae [2]; [6]): 0.546 ± 0.013 | protein stability index (Saccharomyces cerevisiae [2]; [7]): 0.22913 ± 0.00013 | protein stability index (Saccharomyces cerevisiae [2]; [8]): 0.265 ± 0.021 | protein stability index (Saccharomyces cerevisiae [2]; [9]): 0.385 ± 0.0066

LVGLLASWLRFN
protein stability index (Saccharomyces cerevisiae [1]): 0.137 ± 0.039 | protein stability index (Saccharomyces cerevisiae [2]; [3]): 0.579 ± 0.052 | protein stability index (Saccharomyces cerevisiae [2]; [4]): 0.6987 ± 0.001 | protein stability index (Saccharomyces cerevisiae [2]; [5]): 0.672 ± 0.0051 | protein stability index (Saccharomyces cerevisiae [2]; [6]): 0.773 ± 0.017 | protein stability index (Saccharomyces cerevisiae [2]; [7]): 0.12 ± 0.0057 | protein stability index (Saccharomyces cerevisiae [2]; [8]): 0.137 ± 0.012 | protein stability index (Saccharomyces cerevisiae [2]; [9]): 0.199 ± 0.061

KVGPVLLLCRRS
protein stability index (Saccharomyces cerevisiae [1]): 0.445 ± 0.0089 | protein stability index (Saccharomyces cerevisiae [2]; [3]): 0.6524 ± 0.00046 | protein stability index (Saccharomyces cerevisiae [2]; [4]): 0.68 ± 0.023 | protein stability index (Saccharomyces cerevisiae [2]; [5]): 0.637 ± 0.013 | protein stability index (Saccharomyces cerevisiae [2]; [6]): 0.699 ± 0.0081 | protein stability index (Saccharomyces cerevisiae [2]; [7]): 0.621 ± 0.019 | protein stability index (Saccharomyces cerevisiae [2]; [8]): 0.628 ± 0.028 | protein stability index (Saccharomyces cerevisiae [2]; [9]): 0.69 ± 0.0066

FLLAIVRGVWLA
protein stability index (Saccharomyces cerevisiae [1]): 0.176 ± 0.014 | protein stability index (Saccharomyces cerevisiae [2]; [3]): 0.15 ± 0.029 | protein stability index (Saccharomyces cerevisiae [2]; [4]): 0.115 ± 0.0084 | protein stability index (Saccharomyces cerevisiae [2]; [5]): 0.257 ± 0.034 | protein stability index (Saccharomyces cerevisiae [2]; [6]): 0.339 ± 0.014 | protein stability index (Saccharomyces cerevisiae [2]; [7]): 0.154 ± 0.01 | protein stability index (Saccharomyces cerevisiae [2]; [8]): 0.104 ± 0.032 | protein stability index (Saccharomyces cerevisiae [2]; [9]): 0.112 ± 0.0028

HHRLRQGLRRIN
protein stability index (Saccharomyces cerevisiae [1]): 0.462 ± 0.014 | protein stability index (Saccharomyces cerevisiae [2]; [3]): 0.64 ± 0.039 | protein stability index (Saccharomyces cerevisiae [2]; [4]): 0.7278 ± 0.0055 | protein stability index (Saccharomyces cerevisiae [2]; [5]): 0.638 ± 0.0082 | protein stability index (Saccharomyces cerevisiae [2]; [6]): 0.7023 ± 0.003 | protein stability index (Saccharomyces cerevisiae [2]; [7]): 0.251 ± 0.0034 | protein stability index (Saccharomyces cerevisiae [2]; [8]): 0.293 ± 0.0082 | protein stability index (Saccharomyces cerevisiae [2]; [9]): 0.5161 ± 0.0011

GLCGVVVGCWVR
protein stability index (Saccharomyces cerevisiae [1]): 0.397 ± 0.014 | protein stability index (Saccharomyces cerevisiae [2]; [3]): 0.395 ± 0.017 | protein stability index (Saccharomyces cerevisiae [2]; [4]): 0.417 ± 0.017 | protein stability index (Saccharomyces cerevisiae [2]; [5]): 0.286 ± 0.027 | protein stability index (Saccharomyces cerevisiae [2]; [6]): 0.484 ± 0.016 | protein stability index (Saccharomyces cerevisiae [2]; [7]): 0.293 ± 0.011 | protein stability index (Saccharomyces cerevisiae [2]; [8]): 0.283 ± 0.021 | protein stability index (Saccharomyces cerevisiae [2]; [9]): 0.4657 ± 0.0044

VLVVVAFVALPR
protein stability index (Saccharomyces cerevisiae [1]): 0.372 ± 0.016 | protein stability index (Saccharomyces cerevisiae [2]; [3]): 0.264 ± 0.0083 | protein stability index (Saccharomyces cerevisiae [2]; [4]): 0.41 ± 0.053 | protein stability index (Saccharomyces cerevisiae [2]; [5]): 0.285 ± 0.015 | protein stability index (Saccharomyces cerevisiae [2]; [6]): 0.485 ± 0.035 | protein stability index (Saccharomyces cerevisiae [2]; [7]): 0.275 ± 0.01 | protein stability index (Saccharomyces cerevisiae [2]; [8]): 0.282 ± 0.032 | protein stability index (Saccharomyces cerevisiae [2]; [9]): 0.461 ± 0.031

PLRRPSWVVLSS
protein stability index (Saccharomyces cerevisiae [1]): 0.493 ± 0.0029 | protein stability index (Saccharomyces cerevisiae [2]; [3]): 0.671 ± 0.024 | protein stability index (Saccharomyces cerevisiae [2]; [4]): 0.7218 ± 0.0037 | protein stability index (Saccharomyces cerevisiae [2]; [5]): 0.638 ± 0.014 | protein stability index (Saccharomyces cerevisiae [2]; [6]): 0.727 ± 0.0099 | protein stability index (Saccharomyces cerevisiae [2]; [7]): 0.357 ± 0.024 | protein stability index (Saccharomyces cerevisiae [2]; [8]): 0.38 ± 0.029 | protein stability index (Saccharomyces cerevisiae [2]; [9]): 0.5802 ± 0.0041

EGLDVRILIQVI
protein stability index (Saccharomyces cerevisiae [1]): 0.294 ± 0.0068 | protein stability index (Saccharomyces cerevisiae [2]; [3]): 0.0334 ± 0.016 | protein stability index (Saccharomyces cerevisiae [2]; [4]): 0.0735 ± 0.0072 | protein stability index (Saccharomyces cerevisiae [2]; [5]): 0.179 ± 0.025 | protein stability index (Saccharomyces cerevisiae [2]; [6]): 0.197 ± 0.0041 | protein stability index (Saccharomyces cerevisiae [2]; [7]): 0.1362 ± 0.0008 | protein stability index (Saccharomyces cerevisiae [2]; [8]): 0.164 ± 0.025 | protein stability index (Saccharomyces cerevisiae [2]; [9]): 0.154 ± 0.019
